In patent publication US20250215467A1, “L-THREONINE TRANSALDOLASES AND USES THEREOF” (University of Delaware, priority 2022, published 2025):
Like-named read-outs stand apart in the source and are kept apart here.

B1: PiTTA: TTA, SEQ ID NO: 31, Pseudomonas sp. Irchel s3a18 (protein)
chain: MKQDESNVGPVIDWLAQTLGQDYKYRQDTLSLTANENYPSELVRLTSGSTAGAFYHCSFPFPVPLGEWHFPEPGQMNEIADDLRGLAKRMMGAQAFDWRPNGGSPAEQALMLAACKQGEGFVHFAHRDGGHFALEQLATKMGIEIFHLPVDPQSLLIDVAKLDDMVRRNPHIRIVILDQSFKLRWQPLAEIRAILPDSCTLTYDMSHDGGLILGGVFDSPLACGADIAHGNTHKTIPGPQKGFIAFKSAQHPLLVETSLWVCPHLQSNCHAELLPSMWAAFKEMEAFGPAYAHQMVRNAKALANQLHELGLNVSGESFGFTETHQVHFAVGDLQQALSMCVDSLHAGGIRSTNIEIPGKPGMHGIRLGVQAMTRRGMKEDDFRRVAGLIADLYFKRTEPARVASKVKELLGDFPLAPLAYSFDQQIDESRRRLLERGIQR
modifications: Pseudomonas_sp._Irchel_s3a18
notes: Irchel s3a18
B2: CsTTA: TTA, SEQ ID NO: 33, Chitiniphilus shinanonensis (protein, listed as Chitiniphilus shinanonensis)
chain: MTRTTPQARHVVERLNSVLGQDYRYREDCLSLTANENYPSALVRLAGSATAGAFYHCSFPFEVPPGEWYFPESGRMGELAQQLNELGRSLLGAGTFDWRPNGGSPAEQALMLAACKHGEGMVHFAHRDGGHFALENLAQKAGIDIFHLPVDPQTLLIDVARLDELVRRNPQIRIVILDQSFKLRWQPLAAIRKVLPPSCTLTYDTSHDGGLIMGGVFDSPLHCGADVIHGNTHKTVPGPQKGYIAFKSAEHPLLVDTSLWLCPHLQSNCHAELLPPMWVAFKEMEAFGHDYAPQVARNAKALAGHLHRLGFEVSGEAFGFTETHQVHFAVGDLQQALDLCMNTLHRGGIRSTNIEIPGKPGIQGIRLGVQAMTRRGLREDDFEQVARFIADLHFRKADPAGVAAQVAEFLRAFPLAPLHYSFDQELDHELLQSLIGEALR
B3: ObiH: known L-threonine transaldolase of obafluorin biosynthesis, SEQ ID NO: 30, Pseudomonas fluorescens, ARJ35753.1 (protein)
chain: MSNVKQQTAQIVDWLSSTLGKDHQYREDSLSLTANENYPSALVRLTSGSTAGAFYHCSFPFEVPAGEWHFPEPGHMNAIADQVRDLGKTLIGAQAFDWRPNGGSTAEQALMLAACKPGEGFVHFAHRDGGHFALESLAQKMGIEIFHLPVNPTSLLIDVAKLDEMVRRNPHIRIVILDQSFKLRWQPLAEIRSVLPDSCTLTYDMSHDGGLIMGGVFDSPLSCGADIVHGNTHKTIPGPQKGYIGFKSAQHPLLVDTSLWVCPHLQSNCHAEQLPPMWVAFKEMELFGRDYAAQIVSNAKTLARHLHELGLDVTGESFGFTQTHQVHFAVGDLQKALDLCVNSLHAGGIRSTNIEIPGKPGVHGIRLGVQAMTRRGMKEKDFEVVARFIADLYFKKTEPAKVAQQIKEFLQAFPLAPLAYSFDNYLDEELLAAVYQGAQR
modifications: Psuedomonas fluorescenes
B4: KaTTA: L-threonine transaldolase, SEQ ID NO: 1, Kitasatospora aureofaciens, WP_033354341 (protein, listed as Kitasatospora aureofaciens)
chain: MDVLAALERKHSLNLFPIENRLSPRAAAALASDAVNRYPYSETDVAVYGDVSDLNAVYDHCVSLTKEFYGARHAYVQFLSGLHTMHTVLTAVTPPGGRVMVIAPEDGGHYATVTICQGFGYRVEYVPFDRQTLEIDYTALAERTAEHPADVIYLDASTVLRMPDARALRAAAPGAVLCLDASHLLGLLPAAPGTLVLDAGFDSISGSTHKTLPGPQKGLLVTNSDAIAEQVGARIPFTASSSHSASVGSLAITLEELLPHRGDYARQVIANARELARQLAARGFDVAGEAFGFTDTHQVWVHHPEGNTPHEWGRLLTATDIRTTTVVLPSTARSGLRLGTQELTRWGMKEDDMTTVAELLARLLLRGEQSRSVAADVRDLARSFPGVAFADRPAPLAVA
B5: BuTTA: TTA, SEQ ID NO: 34, Burkholderia ubonensis (protein, listed as Burkholderia ubonensis)
chain: MTDFAQAVVNPFVDEQRKSRLVEKISNIFDSLHSDFALDNLYRASHLSLTASENYPSRFVRTLGAGMQGGFYEFAPPYAANPGEWYFPDSGAQSSLVEKLASLGKQLFEANSFDWRPNGGSAAEQAVLLGTCARGDGFVHFAHKDGGHFALEELAQKVGVSIFHLPIEEKSLLIDVDRLATLIKDNPHIKLVILDQSFKLRWQPLLQIRQALPESVVLSYDASHDGGLIIGECLPQPLLFGADIVHGNTHKTIPGPQKGYIAFKNVDHPAMKHVSDWVCPHLQSNSHAELIAPMYIALVEMSLYGRSYAEQVIKNAKALAHALHAEGVRVSGESFGFTETHQVHVVVGSERKALELVTGTLALAGIRCNNIEIPGANGLFGLRLGVQALTRRGIKEHGMAEVARFLVRLILKNESPTAIRNEIASFLESYPINTLHYSLDAHYYTPSGIKLMEEVIA

Columns and labels:
[1] = TTA-ADH coupled assay, substrate scope of TTAs on aromatic aldehydes; assay type: biochemical; conditions: for activity on a set of aromatic aldehyde substrates (substrate scope): substrates 1, 3, 6, 7, 8, 12, 15
Experimental: (§1) High-throughput screening of purified TTAs was performed with a TTA-ADH coupled assay using purified TTA and commercially available alcohol dehydrogenase from S. cerevisiae purchased from MilliporeSigma. Aldehyde stocks were prepared in 50-100 mM solutions in DMSO or acetonitrile. Reaction mixtures were prepared in a 96-well plate with 100 μL of 100 mM phosphate buffer pH 7.5, 0.5 mM NADH, 0.4 mM PLP, 15 mM MgCl2, and 100 mM L-Thr with the addition of 0.25 mM to 1 mM aldehyde depending on the background absorbance at 340 nm (Table 4), 10 U ScADH, and 0.25 μM purified TTA unless otherwise specified. Reactions were initiated with the addition of enzyme. […] The following controls were included for every assay: reaction mixture without aldehyde, without TTA, and without enzyme (TTA or ADH). Rates were calculated by identifying the linear region at the beginning of the kinetic run and converting the depletion in absorbance to the depletion of mM NADH using an NADH standard curve.
We specifically selected substrates with ring substituents with different electron withdrawing properties (1, 3, 6, 7, 8), substituent size (12), and aldehyde chain length (15) to compare the activity of the putative TTAs to ObiH. We were also encouraged by the activity of PbTTA and KaTTA on vanillin and protocatechualdehyde which are substrates that would form products like commercially available therapeutic, Droxidopa (FIG. 18).
To explore the possibility that DbTTA and TmTTA are TTAs active on other related aldehydes, we sought to examine their activity with L-Thr and aldehyde substrates with different ring substituent position (2), bulkier, hydrophobic chemistry (10), and aldehyde chain length (14) using the TTA-ADH coupled assay.

[2] = In vitro assay over 20 h with HPLC analysis (amino acid substrate specificity, diastereomeric excess); assay type: biochemical; conditions: 3 as aldehyde substrate
Experimental: Metabolites of interest were quantified via high-performance liquid chromatography (HPLC) using an Agilent 1260 Infinity model equipped with a Zorbax Eclipse Plus-C18 column. To quantify aldehyde and β-OH-nsAAs, an initial mobile phase of solvent A/B=95/5 was used (solvent A, water+0.1% TFA; solvent B, acetonitrile+0.1% TFA) and maintained for 5 min. A gradient elution was performed (A/B) as follows: gradient from 95/5 to 50/50 for 5-12 min, gradient from 50/50 to 0/100 for 12-13 min, and gradient from 0/100 to 95/5 for 13-14 min. A flow rate of 1 mL min-1 was maintained, and absorption was monitored at 210, 250 and 280 nm.
We performed an in vitro assay over 20 h using 3 as the aldehyde substrate and either L-Thr, Glycine (Gly), or L-Serine (L-Ser) as the candidate amino acid. Since the TTA-ADH coupled assay is specific to L-Thr, we analyzed TTA activity via HPLC with a chemically synthesized β-OH-nsAA standard for the assumed product from 3.

[3] = TTA-ADH coupled assay, screen of purified TTAs on 2-nitro-benzaldehyde; assay type: biochemical; conditions: substrate 3, TTA-ADH coupled assay
Experimental: as §1
Once purified, we identified the putative TTAs with high activity and further characterized them for their L-Thr affinity and substrate scope. We first screened each purified enzyme using the TTA-ADH coupled assay with 2-nitro-benzaldehyde, 3, the best performing substrate from the screen of ObiH that was not a substrate of the ScADH. […] With this evidence as well as well-aligned, predicted AlphaFold structures, we assumed the impact of the SUMO tag would be minimal for all TTAs screened and moved forward with additional enzyme characterization.

[4] = TTA-ADH coupled assay at different L-Thr concentrations (apparent L-Thr KM and kcat); assay type: biochemical; conditions: for L-Thr kcat compared with ObiH: phenylacetaldehyde as the aldehyde substrate; for Km: apparent, phenylacetaldehyde (14) as aldehyde, ADH coupling, non-linear regression
Experimental: as §1
We next sought to determine the affinity of these enzymes for L-Thr, which we obtained by performing the TTA-ADH coupled assay at different L-Thr concentrations (FIG. 16b). […] Two differences between our assays were the substrate, phenylacetaldehyde (14) instead of 4-nitrophenylacetylaldehyde (15), and the assay format, ADH coupling rather than a discontinuous HPLC assay. Because a live cellular environment would also contain alcohol dehydrogenases for reduction of acetaldehyde, it is possible that the KM values that we are measuring using the TTA-ADH coupled assay may be more realistic for our envisioned applications.

[5] = literature value; ObiH: 4-nitrophenylacetylaldehyde (15), discontinuous HPLC assay; read-out: reported L-Thr KM; cited from earlier work

| Molecule | activity on a set of aromatic aldehyde substrates (substrate scope) [1] | β-OH-nsAA formation using L-Ser or Gly [2] | activity on 2-nitro-benzaldehyde relative to ObiH [3] | L-Thr kcat compared with ObiH [4] | Km [5] | Km [4] | activity on vanillin and protocatechualdehyde ([1]; TTA-ADH coupled assay) |
| --- | --- | --- | --- | --- | --- | --- | --- |
| B1 | relatively selective | no β-OH-nsAA formation | comparable to or better than ObiH | higher measured L-Thr kcat values than ObiH | – | – | – |
| B2 | – | no β-OH-nsAA formation | comparable to or better than ObiH | higher measured L-Thr kcat values than ObiH | – | – | – |
| B3 | – | – | – | – | 40.2 ± 3.8 mM | 29.5 mM | – |
| B4 | – | no β-OH-nsAA formation | comparable to or better than ObiH | – | – | 19.1 mM | activity |
| B5 | relatively selective | no β-OH-nsAA formation | comparable to or better than ObiH | higher measured L-Thr kcat values than ObiH | – | – | – |
